# According to patent US20090175872A1, “Treatment of Conditions Involving Demyelination” (BIOGEN Idec MA Inc., priority 2005, published 2009):
# B1: Sp35-Fc: extra-cellular portion of human Sp35 (residues 1-532) fused to the hinge and Fc region of human IgG1 (protein)
# chain: TGCPPRCECSAQDRAVLCHRKRFVAVPEGIPTETRLLDLGKNRIKTLNQDEFASFPHLEELELNENIVSAVEPGAFNNLFNLRTLGLRSNRLKLIPLGVFTGLSNLTKLDISENKIVILLDYMFQDLYNLKSLEVGDNDLVYISHRAFSGLNSLEQLTLEKCNLTSIPTEALSHLHGLIVLRLRHLNINAIRDYSFKRLYRLKVLEISHWPYLDTMTPNCLYGLNLTSLSITHCNLTAVPYLAVRHLVYLRFLNLSYNPISTIEGSMLHELLRLQEIQLVGGQLAVVEPYAFRGLNYLRVLNVSGNQLTTLEESVFHSVGNLETLILDSNPLACDCRLLWVFRRRWRLNFNRQQPTCATPEFVQGKEFKDFPDVLLPNYFTCRRARIRDRKAQQVFVDEGHTVQFVCRADGDPPPAILWLSPRKHLVSAKSNGRLTVFPDGTLEVRYAQVQDNGTYLCIAANAGGNDSMPAHLHVRSYSPDWPHQPNKTFAFISNQPGE
# modifications: left off: a dimerising Fc or GST
# notes: extra-cellular portion of human Sp35 (residues 1-532) fused to the hinge and Fc region of human IgG1
# Experiments:
# mature oligodendrocytes = test: Mature oligodendrocyte survival and MBP expression; type: cell-based, rat
# Description: Mature oligodendrocytes have a half-life in vitro of about 48 to 72 hours, with cells typically undergoing apoptosis after 72 hours. […] MBP expression was monitored as a marker for mature ologodendrocytes.
# Caspase-3 = Caspase-3 activation in differentiated PC12 cells after NGF withdrawal (Caspase 3/7 Glo); type: cell-based; conditions: 18 hours after removal of NGF
# Description: PC 12 cells (Neuroscreen) were differentiated in RPMI-1640 medium supplemented with 5% fetal bovine serum, 10% horse serum, 2 mM glutamine, 100 U/ml penicillin and […] streptomycin containing 200 ng/ml NGF for 7 days. For experiments, the culture media was replaced with NGF-free culture media containing Sp35-Fc, human IgG as a negative control (0.1-10 μM), or zVAD as a positive control (0.1 μM). 18 hours after NGF withdrawal, activated Caspase-3 was quantified using the Caspase 3/7 Glo kit (Promega) according to the manufacturer's instructions. 42 hours after NGF withdrawal, apoptotic cell death was quantified using a cell death detection ELISA kit (Roche) according to the manufacturer's instructions.
# [1] = system: differentiated PC12 cells; test: Apoptotic cell death in differentiated PC12 cells after NGF withdrawal (cell death ELISA / TUNEL); type: cell-based
# human ErbB2 = target: T1, human ErbB2 (Homo sapiens, UniProt P04626); test: AP-Sp35 binding to ErbB2-transfected CHO cells; conditions: pre-incubation with soluble fusion protein, FIG. 17B
# T1 construct: expressed in transfected cells; host or cells: CHO cells, transient transfection with Fugene 6, assayed after 48 hours
# Description: ErbB2 is a member of the type I family of transmembrane receptor tyrosine kinases. The family comprises four members: epidermal growth factor receptor (EGFR or ErbB1), ErB2 (HER2 or neu), ErbB3 and ErbB4. Oligodendrocyte differentiation is positively regulated by the ErbB2 receptor tyrosine kinase. To examine the potential interaction between Sp35 and ErB2, an N-terminal AP-tagged human Sp35 protein was tested for binding to human ErbB2-transfected Chinese hamster ovary (CHO) cells.
# 90% confluent CHO cells were transfected with various combinations of human ErbB2 vector expression plasmid using Fugene 6 reagents (Roche). After 48 hours, the transfected cells were washed with HBH (Hank's balanced salt solution, 1 mg/ml BSA, 20 mM HEPES (pH 7.0)) and incubated for 1.5 hours at 23° C. or […] with 4 μg/ml of AP-Sp35 (human placental alkaline phosphotase (AP) with an N-terminal six histidine tag, fused to the C-terminus of human Sp35 (residues 34-532), as described in Mi et al., Nat. Neurosci. 7:221-228 (2004)) or control AP-protein in HBH. Bound AP-Sp35 was detected directly or following detergent lysis of the cells by ELISA and enzymatic activity was quantified with 4-NPP as described in Mi et al. Nat. Neurosci. 7:221-228 (2004).
# In order to identify the Sp35 domain that binds ErbB2, soluble truncated forms of AP-Sp35 were tested for binding. Both the LRR domain of Sp35 (amino acids 34-417 of SEQ ID NO:2) (AP-Sp35-LRR) and the extracellular domain of Sp35 (amino acids 34-532 of SEQ ID NO:2) (AP-Sp35) bound to ErbB2 expressed in CHO cells. […] FIGS. 17B and 17C.
molecule,measurement,setting,value
B1,survival rate for mature oligodendrocytes,"mature oligodendrocytes; 10 μg/ml for 5 days, cell viability staining, versus control-Fc",significantly increased survival rate
same,increase in MBP protein expression,"mature oligodendrocytes; cell staining and Western blot with anti-MBP antibody, versus control-Fc treated cells",approximately 3 fold
same,Caspase-3 activation,Caspase-3; 0.1 μM,reduced Caspase-3 activation
same,Caspase-3 activation compared with zVAD (0.1 μM),"Caspase-3; 1 or 10 μM, dose-dependent, FIG. 14",as effective as a neuroprotective dose of the caspase inhibitor zVAD
same,cells undergoing apoptosis (TUNEL assay),"[1]; 18 hours after NGF withdrawal, versus control, FIG. 13 legend",fewer cells undergoing apoptosis
same,cell death (TUNEL ELISA),"[1]; 42 hours after withdrawal of NGF, FIG. 13",significantly reduced cell death
same,AP-Sp35 binding to ErbB2-expressing cells after pre-incubation,human ErbB2,blocked
